Read-outs that look alike come from different tables or passages of the source.

The values below come from paper PMC11062541.

What all share (assay): EMSA
In series [1] the test system is T1, AbiEi (Streptococcus suis serotype 5 strain HN105), ORF:22a13f51.
T1 sequence: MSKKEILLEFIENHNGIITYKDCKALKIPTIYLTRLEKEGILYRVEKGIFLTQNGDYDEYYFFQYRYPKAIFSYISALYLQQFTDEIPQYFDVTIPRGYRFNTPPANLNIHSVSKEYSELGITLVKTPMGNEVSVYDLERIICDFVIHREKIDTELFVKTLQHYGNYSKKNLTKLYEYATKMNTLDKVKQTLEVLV

The subject of series [2] is T2, AbiEiDel-AHTH internal_change (Streptococcus suis serotype 5 strain HN105), ORF:22a13f51.
T2 sequence: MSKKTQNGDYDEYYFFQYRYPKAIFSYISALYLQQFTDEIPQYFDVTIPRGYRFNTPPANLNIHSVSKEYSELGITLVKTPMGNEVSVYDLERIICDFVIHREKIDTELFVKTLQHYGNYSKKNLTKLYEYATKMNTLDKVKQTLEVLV

The subject of series [3] is T3, SezA (Streptococcus suis serotype 5 strain HN105), ORF:21ec5bb3.
T3 sequence: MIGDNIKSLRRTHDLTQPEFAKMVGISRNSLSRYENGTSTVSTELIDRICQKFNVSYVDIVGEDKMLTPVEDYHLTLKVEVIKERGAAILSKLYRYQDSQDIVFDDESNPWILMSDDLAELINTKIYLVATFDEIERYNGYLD

In series [4] the test system is SezA (Streptococcus suis serotype 5 strain HN105).
The subject of series [5] is AbiEi (Streptococcus suis serotype 5 strain HN105).

On to “ACTTACTCCTTCCTTTTACAATATTTGTAGTGCAAAAGCAACATTTTCTTTTACATTAATGTATTGTGATAACAAAATCAAGCCTTCTTTTTTATGATGAGAAAAGAGTGACAGTTTGTTGCTACAGAAAAAAGAAAAGAAGGACTATTTATGACCAAAACATGTAATCATCACTTTCT (double strand) [PAbiE-ΔIR1]”, for which the binding entry in series [1] (IR1 deleted) was “binds”.

In the case of “AGAAAGTGATGATTACATGTTTTGGTCATAAATAGTCCTTCTTTTCTTTTTTCTGTAGCAACAAACTGTCACTCTTTTCTCATCATAAAAAAGAAGGCTTGATTTTGTTATCACAATACATTAATGTAAAAGAAAATGTTGCTTTTGCACTACAAATATTGTAAAATTGTAGTATAAAAGCAACATTGGAAGGAGTAAGT (double strand) [AbiE promoter]”, the binding result is given as “binds” in series [1], “no binding” in series [2] and “no binding” in series [3].

For “AGAAAGTGATGATTACATGTTTTGGTCATAAATAGTCCTTCTTTTCTTTTTTCTGTAGCAACAAACTGTCACTCTTTTCTCATCATAAAAAAGAAGGCTTGATTTTGTTATCACAATACATTAATGTAAAAGAAATATTGTAAAAGGAAGGAGTAAGT (double strand) [PAbiE-ΔIR1/2]”, the binding result in series [1] (IR1 and IR2 deleted) is reported as “no binding”.

Turning to “AGAAAGTGATGATTACATGTTTTGGTCATAAATAGTCCTTCTTTTCTTTTTTCTGTAGCAACAAACTGTCACTCTTTTCTCATCATAAAAAAGAAGGCTTGATTTTGTTATCACAATACATTAATGTAAAAGAAATATTGTAAAATTGTAGTATAAAAGCAACATTGGAAGGAGTAAGT (double strand) [PAbiE-ΔIR2]”, the binding result in series [1] (IR2 deleted) is reported as “binds”.

Take “AGATAAAGACCTCCTCATATTTGCTTTCATTATACCATATATTAGGTTTCTTCGATTGCTTAAACTCCTCTATTCGCTTCTCCAACTGCTCAGTATTCAGTTTATTTTTCGCTTCTTGGATTGACTTATCAAGAATTTGTTCCTCATCGGTTATAATGTCCC (double strand) [PSezAT-ΔIR1/2]”: the binding result in series [3] (IR1 and IR2 deleted) is listed as “no binding”.

Substance “AGTACAGGACTGGATTCAATTTTATGCCAAAATTCCTGCCAAACTTCAAATTTATGAACTCAAACCCCTTGATACTGCACATTTAACAGGTTGTGCAATTGTTACTCTTAAATAATAGAGTTTCCAATCAAAATAAAAACCTATCACCTAATGTGGTAGGTTTTTTTTGTTCTATTGTTGCAAACGTTTTCGTTGTGGGGTATAATATAAAAAAT (double strand) [L sequence (attL)]” showed a Kd in series [3] of 1960 nM.

Regarding “AGTACAGGACTGGATTCAATTTTATGCCAAAATTCCTGCCAAACTTCAAATTTATGAACTCAAACCCCTTGATACTGCACATTTAACAGGTTGTGCAATTTAGAGTTTCCAATCAAAATAAAAACCTATCACCTAATGTGGTAGGTTTTTTTTGTTCTATTGTTGCAAACGTTTTCGTTGTGGGGTATAATATAAAAAAT (double strand) [L-ΔattL]”, in series [3] (attL deleted), the binding entry was “no binding”.

In series [1], “CCTACTATCCTTTCAACATGATATTTGTCTGACAATGTAAGGCTGCCTCACATTGTCAGTACGCTTCCTAAAGACTTCACTCTCTCCTTGTTCGGTCTTTGCGAGCTCAGATATTGTGTCCACAATATCCCCAGTAGAAAATCAACACTTGATTTTTTTAGGAATGATATTAGGATAATAGAGGTGATTTGGAAAAGGTATCACAAAACAAAAAGTAGGATATTTCTAACCTACTTTTCATTTCCTTATA (double strand) [T sequence (oriT)]” had a Kd of 153 nM. The binding result in series [2] is “no binding”.

Consider “GGGACATTATAACCGATGAGGAACAAATTCTTGATAAGTCAATCCAAGAAGCGAAAAATAAACTGAATACTGAGCAGTTGGAGAAGCGAATAGAGGAGTTTAAGCAATCGAAGAAACCTAAAAACGGATAATGCACCAAATATGGTGCGTTATCCGTTTTTTATGGTATAATGAAAGCAAATATGAGGAGGTCTTTATCT (double strand) [SezAT promoter]”, for which the binding entry in series [1] and in series [3] was “binds” each time.

In turn, L sequence (attL) showed a Kd in series [4] of 1960 nM.

For the substance T sequence (oriT), the Kd in series [5] was found to be 153 nM.

For the substance “TATAAGGAAATGAAAAGTAGGTTAGAAATATCCTACTTTTTGTTTTGTGATACCTTTTCCAAATCACCTCTATTATCCTAATATCATTCCTAAAAAAATCAAGTGTTGATTTTCTACTGCGAACAAGGAGAGAGTGAAGTCTTTAGGAAGCGTACTGACAATGTGAGGCAGCCTTACATTGTCAGACAAATATCATGTTGAAAGGATAGTAGG (double strand) [T-ΔoriT]”, the binding result in series [1] (oriT deleted) was “no binding”.
